Laboratory results from patent US20230120018A1, “PREDICTION OF PEPTIDE CLEAVAGE IN POLYPEPTIDES THROUGH PHYSICS-BASED SIMULATIONS” (Genentech, Inc., priority 2020, published 2023).

Experiment: Neutral pH 37 C stability of commercial antibodies, fragmentation by mass spectroscopy and CE-SDS
Assay type: physicochemical
Conditions: PBS pH 7.4, up to 4 weeks at 37° C.
Procedure: In addition to the data shown for Mab5 in Table 1 and FIG. 9, neutral pH, 37 C stability data was generated for all except muromonab, teplizumab, tovetumab, and visilizumab. Antibodies formulated in PBS, pH 7.4, were incubated for up to 4 weeks at 37° C. and evidence for fragmentation was obtained by mass spectroscopy and capillary electrophoresis sodium dodecyl sulfate (CE-SDS) for both intact and reduced samples.

| Molecule | Light chain fragment observed? (hydrolysis at Asn-Pro in CDR-L3) |
| --- | --- |
| veltuzumab [reference compound] | detected and Yes |
| otlertuzumab (antibody, chains of the INN, looked up, V domains shown) VH: EVQLVQSGAEVKKPGESLKISCKGSGYSFTGYNMNWVRQMPGKGLEWMGNIDPYYGGTTYNRKFKGQVTISADKSISTAYLQWSSLKASDTAMYYCARSVGPFDSWGQGTLVTVSS VL: EIVLTQSPATLSLSPGERATLSCRASENVYSYLAWYQQKPGQAPRLLIYFAKTLAEGIPARFSGSGSGTDFTLTISSLEPEDFAVYYCQHHSDNPWTFGQGTKVEIK | not and No |

Experiment: Asn-Pro hydrolysis in unstructured linear peptide mimics of CDR-L3 at accelerated temperature
Assay type: physicochemical
Conditions: pH 7.4, 90° C.
Procedure: To examine the effect of antibody structure on the rate of Asn-Pro hydrolysis, thermal stress was performed on unstructured, linear peptides representing the CDR-L3 sequence of Fab1 and Mab3. Since it had been previously shown that the rate of hydrolysis in unstructured peptides incubated at 37° C. was slow, accelerated temperature conditions (90 and 70° C.) were performed and the temperature dependence extrapolated to calculate the rate at 37° C. Very slow rates of peptide hydrolysis (Table 2), with half-lives calculated for 37° C. of greater than 2000 days, were observed. As expected, the rate of hydrolysis was slower, by about 3-fold, for incubations performed in pH 5 buffer.

| Molecule | % Pro peak formation/day at 90° C. |
| --- | --- |
| Fab1: peptide mimic of Fab1 CDR-L3 segment, QQWSSNPWTFGQ | 1.0 % Pro peak formation/day |
| Fab2: peptide mimic of Fab2 CDR-L3 segment, QQGYGNPFTFGQ | 2.9 % Pro peak formation/day |
| Mab3: peptide mimic of Mab3 CDR-L3 segment, QQWSSNPYTFGQ | 2.9 % Pro peak formation/day |
| Mab4: peptide mimic of Mab4 CDR-L3 segment, QQGINNPLTFGQ | 1.9 % Pro peak formation/day |
